{
  "source": "paper PMC8745191",
  "conditions_in_all_cases": "LightShift Chemiluminescent EMSA kit, manufacturer's protocol; binding buffer, pH and temperature not stated; protein eluted in 20 mM Tris-HCl pH 8.0, 500 mM …",
  "key": {"[1]": {"biological_target": "T1, His-STOP1 (Arabidopsis thaliana) (UniProt Q9C8N5)", "T1 sequence": "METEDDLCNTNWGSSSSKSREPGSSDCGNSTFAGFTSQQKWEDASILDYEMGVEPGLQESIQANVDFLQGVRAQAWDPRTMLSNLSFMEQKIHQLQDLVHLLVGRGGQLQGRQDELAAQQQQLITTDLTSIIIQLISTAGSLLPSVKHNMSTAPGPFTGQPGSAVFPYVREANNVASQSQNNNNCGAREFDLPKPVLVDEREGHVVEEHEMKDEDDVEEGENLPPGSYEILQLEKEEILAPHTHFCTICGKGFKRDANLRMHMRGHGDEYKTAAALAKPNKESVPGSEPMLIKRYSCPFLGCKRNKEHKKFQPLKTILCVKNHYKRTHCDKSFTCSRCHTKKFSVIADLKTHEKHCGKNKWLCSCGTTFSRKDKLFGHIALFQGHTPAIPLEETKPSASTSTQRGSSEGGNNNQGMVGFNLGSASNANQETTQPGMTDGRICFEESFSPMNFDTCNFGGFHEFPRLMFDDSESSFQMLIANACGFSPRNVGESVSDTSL", "assay": "EMSA"}, "[2]": {"biological_target": "T2, His-STOP1 H266Y H266Y (Arabidopsis thaliana (stop1-1 allele)) (UniProt Q9C8N5)", "T2 sequence": "T1 sequence with H266Y", "assay": "EMSA"}, "[3]": {"biological_target": "T1, His-STOP1 (Arabidopsis thaliana)", "assay": "competition"}},
  "note": "Where a chain is given by its changes, count along the chain named.",
  "data": [
    {"sequence": "TTGCATTTAAATTATCAAAGACTAAGATAAGCCTAGAATAATTTAAAATGTAAACTATAGTATACGTCAGAACCTACAGATACAACCTTCCTCGTATAATCCCTAAACAGAATTTTAATT (double strand) [P3 (F2-2) LKS1 promoter probe]", "values": [
      {"measurement": "binding", "setting": "[1]", "result": "binds"},
      {"measurement": "binding", "setting": "[2]", "result": "no binding"}
    ]},
    {"sequence": "TTGCATTTAAATTATCAAAGACTAAGATAAGCCTAGAATAATTTAAAATGTAAACTATAGTATACGTCAGAACCTACAGATACAACCTTCCTCGTATAATCCCTAAACAGAATTTTAATT (double strand) [P3 unlabeled competitor (cold probe)]", "values": [
      {"measurement": "binding", "setting": "[3]", "result": "binds"}
    ]}
  ]
}
